Test results: US20110262445A1

Target: human IL-12, IL-23, IL-12p40
Assay: SPR

Kd: 0.04 to 0.07 nM
B1: Antibody 1 (antibody, human IgG1, kappa, V domains shown)
VH: EVQLQQSGADLVRSGASIKLSCTASGFNIKDYYMHWVKQRPEQGLEWIGWIDPENGDTEYAPKFQGKATMTADTSSNTAYLQLSSLTSEDTAVYYCNACKELRYFDVWGAGTTVTVSS
VL: DIVLTQSPATLSVTPGDSVSLSCRASQSISINLHWYQQKSHESPRLLIKFASQSISGIPSRFSGYGSGTDFTLSINSVETEDFGRYFCQQSNSWPLTFGAGTKLELKR
